# In US20200247894A1 (Regeneron, published 2020):
# Residue numbers refer to the chain shown, from its start.
# T1: Human IL2Rγ extracellular domain expressed with a C-terminal mouse IgG2a Fc tag (human)
# T1 construct: whole entry is the Fc-fused construct; also called hIL-2Rg-mFc
# T1 chain: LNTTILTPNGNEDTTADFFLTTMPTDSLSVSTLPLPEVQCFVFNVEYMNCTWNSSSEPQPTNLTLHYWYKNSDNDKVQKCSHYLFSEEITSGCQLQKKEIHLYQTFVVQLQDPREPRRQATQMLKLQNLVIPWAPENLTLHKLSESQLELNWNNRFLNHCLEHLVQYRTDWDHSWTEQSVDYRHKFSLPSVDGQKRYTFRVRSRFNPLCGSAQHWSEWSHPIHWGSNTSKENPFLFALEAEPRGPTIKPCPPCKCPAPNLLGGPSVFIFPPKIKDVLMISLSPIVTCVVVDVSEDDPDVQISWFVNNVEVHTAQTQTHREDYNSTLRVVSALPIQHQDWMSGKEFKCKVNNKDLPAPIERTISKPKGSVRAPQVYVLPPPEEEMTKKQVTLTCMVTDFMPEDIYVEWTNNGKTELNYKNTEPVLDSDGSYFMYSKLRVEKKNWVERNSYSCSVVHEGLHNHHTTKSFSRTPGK
# T2: Mouse IL2Rγ extracellular domain expressed with a C-terminal myc-myc-hexahistidine tag (mouse)
# T2 construct: whole entry is the tagged construct; also called mIL-2Rg-MMH
# T2 chain: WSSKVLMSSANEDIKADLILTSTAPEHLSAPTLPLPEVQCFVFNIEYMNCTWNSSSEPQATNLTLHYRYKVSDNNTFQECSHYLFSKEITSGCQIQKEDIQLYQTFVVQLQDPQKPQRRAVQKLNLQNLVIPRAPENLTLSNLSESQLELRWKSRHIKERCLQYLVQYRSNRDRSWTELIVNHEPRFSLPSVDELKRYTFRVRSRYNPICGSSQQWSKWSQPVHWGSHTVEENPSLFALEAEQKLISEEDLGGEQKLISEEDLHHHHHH
# T3: Rat IL2Rγ extracellular domain expressed with a C-terminal myc-myc-hexahistidine tag (rat)
# T3 construct: whole entry is the tagged construct; also called rIL-2Rg-MMH; rat IL-2Rg-MMH
# T3 chain: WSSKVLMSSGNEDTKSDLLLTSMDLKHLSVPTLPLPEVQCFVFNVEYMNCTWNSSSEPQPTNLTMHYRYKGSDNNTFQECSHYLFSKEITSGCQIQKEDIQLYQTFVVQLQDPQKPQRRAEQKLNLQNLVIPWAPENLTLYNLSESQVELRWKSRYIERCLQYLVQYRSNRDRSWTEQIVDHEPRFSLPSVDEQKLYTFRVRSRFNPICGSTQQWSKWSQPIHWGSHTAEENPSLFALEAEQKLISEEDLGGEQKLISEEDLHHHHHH
# T4: Macaca fascicularis IL2Rγ extracellular domain expressed with a C-terminal myc-myc-hexahistidine tag (Macaca fascicularis)
# T4 construct: whole entry is the tagged construct; also called mfIL-2Rg-MMH
# T4 chain: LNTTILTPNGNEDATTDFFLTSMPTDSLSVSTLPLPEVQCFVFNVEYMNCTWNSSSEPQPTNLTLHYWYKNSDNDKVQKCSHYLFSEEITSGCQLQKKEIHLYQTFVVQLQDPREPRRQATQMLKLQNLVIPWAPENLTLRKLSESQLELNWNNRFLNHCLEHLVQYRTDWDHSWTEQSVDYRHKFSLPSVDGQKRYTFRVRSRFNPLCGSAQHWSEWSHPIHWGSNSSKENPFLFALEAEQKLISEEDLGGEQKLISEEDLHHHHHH
# T5: Macaca fascicularis IL2Rγ extracellular domain expressed with a C-terminal myc-myc-hexahistidine tag (Macaca fascicularis)
# T5 construct: also called mfIL-2Rg-MMH; mfIL-2RG-MMH
# T5 chain: T4 chain
# T6: Human IL2Rγ extracellular domain expressed with a C-terminal myc-myc-hexahistidine tag (human)
# T6 construct: also called hIL-2Rg-MMH; hIL-2RG-MMH
# T6 chain: T4 chain with A14T, T16A, S22T, R141H, S228T
# B1: H4H12889P (antibody, human IgG4 S228P, kappa, V domains shown)
# VH: EVQLVESGGGLVQPGGSLRLSCAASGFIFSSYEMHWVRQAPGKGLEWISYISSSGTTIYYADSVKGRFTISRDNAKNSLYLHMNSLRAEDTAVYYCTRARITGTFDVFDIWGQGTMVTVSS
# VL: DIQMTQSPSSLSASVGDRVTITCRASQSISSYLNWYQQKPGKAPKLLIFAASNLQSGVPSRFSGSRSGTDFTLTISSLQPEDFATYYCQQNYNIPYTFGQGTKLEIKR
# notes: fully human anti-IL2Rgamma mAb, human IgG4 Fc; also called REGN7257
# B2: H4H12863P (antibody, human IgG4 S228P, kappa, V domains shown)
# VH: QVQLVESGGGVVQPGRSLRLSCTASGFTFRSYDMYWVRQAPGKGLEWVSVITYDGNNKYYADSVKGRFTISRDNSKNTLFLQMSSLRPEDTAVYYCAKRGLIWVGESFDYWGQGTLVTVSS
# VL: DIQMTQSPSTLSASVGDRVTITCRASQSINSWLAWYQQKPGKAPNLLIYKASSLESGVPSRFSGSGSGTEFTLTISSLQPDDFATYYCQQYKSYSWTFGQGTKVEIKR
# notes: fully human anti-IL2Rgamma mAb, human IgG4 Fc
# B3: H4H12874P (antibody, human IgG4 S228P, kappa, V domains shown)
# VH: QVQLVESGGGVVQPGRSLRLSCAASGFNFRNFGMHWVRQAPGKGLEWVAGILYDGSSKYYADSVKDRFTISRDNSKNTLFLQMNSLRAEDTAMYYCAKEEDTAMVPFDSWGPGTLVTVSS
# VL: DIQLTQSPSFLSASVGDRVTITCWASQGISSYLAWYQQKPGKAPTLLIYAASTLQSGVPSRFSGSGSGTEFTLTISSLQPEDFASYYCQQLKSYPLTFGGGTKVEIKR
# notes: as for B2
# B4: H4H12927P2 (antibody, human IgG4 S228P, kappa, V domains shown)
# VH: EVQLVESGGGVVRPGGSLRLSCATSGFTFDDYGMSWVRQVPGKGLEWVSSVNRNGGTTDYADSVKGRFTISRDNAKRSLFLQMNSLRAEDTALYHCATGELFFDYWGQGTLVTVSS
# VL: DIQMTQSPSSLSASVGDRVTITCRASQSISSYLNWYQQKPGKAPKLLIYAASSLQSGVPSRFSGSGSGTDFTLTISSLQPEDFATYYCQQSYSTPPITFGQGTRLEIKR
# notes: anti-IL2Rγ monoclonal antibody expressed with human IgG4 Fc
# B5: H4H12926P2 (antibody, human IgG4 S228P, kappa, V domains shown)
# VH: QVQLQQSGPGLVKPSQTLSLTCAISGDSVSSNIAAWNWIRLSPSRGLEWLGRTFFRSTWFYDYSLSVKGRITINPDTSKNQFSLHLNSVTPEDAAVYYCARTGRRWSLDYWGQGTLVTVSS
# VL: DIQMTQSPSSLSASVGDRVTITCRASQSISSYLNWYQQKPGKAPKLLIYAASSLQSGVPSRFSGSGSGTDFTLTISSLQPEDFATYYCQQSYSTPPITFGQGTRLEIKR
# notes: as for B4
# How the values were obtained:
# [1] = molecular target: T1, Human IL2Rγ extracellular domain …; test: SPR Biacore 4000, anti-hFc-captured mAb, 25 C
# Outline: (§1)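 HBS-ET running buffer (10 mM HEPES, 150 mM NaCl, 3 mM EDTA, 0.05% Tween-20, pH 7.4). mAb capture via anti-human Fc. Dissociation monitored 8-10 min. 1:1 kinetic fit; KD, t1/2 derived from ka/kd.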
# [2] = molecular target: T2, Mouse IL2Rγ extracellular domain …; test: SPR Biacore 4000, anti-hFc-captured mAb, 25 C
# Outline: as §1
# [3] = molecular target: T3, Rat IL2Rγ extracellular domain …; test: SPR Biacore 4000, anti-hFc-captured mAb, 25 C
# Outline: as §1
# [4] = molecular target: T4, Macaca fascicularis IL2Rγ extracellular …; test: SPR Biacore 4000, anti-hFc-captured mAb, 37 C
# Outline: as §1
# [5] = molecular target: T1, Human IL2Rγ extracellular domain …; test: SPR Biacore 4000, anti-hFc-captured mAb, 37 C
# Outline: as §1
# [6] = molecular target: T2, Mouse IL2Rγ extracellular domain …; test: SPR Biacore 4000, anti-hFc-captured mAb, 37 C
# Outline: as §1
# [7] = molecular target: T3, Rat IL2Rγ extracellular domain …; test: SPR Biacore 4000, anti-hFc-captured mAb, 37 C
# Outline: as §1
# [8] = molecular target: T1, Human IL2Rγ extracellular domain …; test: SPR Biacore 4000, anti-hFc-captured mAb, 37 C; computed with kd fixed at 1.00E-05
# Protocol: (§2) Equilibrium dissociation constants (KD values) for IL-2Rγ binding to purified anti-IL2Rγ monoclonal antibodies were determined using a Biacore 4000 instrument equipped with a real-time surface plasmon resonance biosensor. All binding studies were performed in 10 mM HEPES, 150 mM NaCl, 3 mM EDTA, and 0.05% v/v Surfactant Tween-20, pH 7.4 (HBS-ET) running buffer at 25° C. and 37° C. The Biacore sensor surface was first derivatized by amine coupling with a monoclonal mouse anti-human Fc antibody (GE, # BR-1008-39) to capture anti-IL2Rγ monoclonal antibodies.
# (§3) The dissociation of monoclonal antibody bound IL2Rγ reagents were monitored for 8-10 minutes in HBS-ET running buffer. Kinetic association (kₐ) and dissociation (kd) rate constants were determined by fitting the real-time sensorgrams to a 1:1 binding model using Scrubber 2.0c curve fitting software. Binding dissociation equilibrium constants (KD) and dissociative half-lives (t_{1/2}) were calculated from the kinetic rate constants as: […]
# [9] = molecular target: T1, Human IL2Rγ extracellular domain …; test: SPR Biacore 4000, anti-hFc-captured mAb, 37 C; no dissociation observed, kd manually fixed at 1.00E-05
# [10] = molecular target: T5, Macaca fascicularis IL2Rγ extracellular …; test: SPR Biacore 4000, mAb captured by anti-hFc, HBS-ET, 25C
# Outline: as §1
# [11] = molecular target: T6, Human IL2Rγ extracellular domain …; test: SPR Biacore 4000, mAb captured by anti-hFc, HBS-ET, 25C; 25 C
# Protocol: as §2, §3
# [12] = molecular target: T5, Macaca fascicularis IL2Rγ extracellular …; test: SPR Biacore 4000, mAb captured by anti-hFc, 37C, dissociation in PBS-T pH 7.4
# Outline: (§4)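 kd obtained by fitting real-time sensorgrams to a 1:1 binding model, with dissociation monitored for 6 minutes in PBS-T at pH 6.0 or 7.4, 25° C or 37° C. Antibodies bearing human IgG4 Fc were captured via immobilized mouse anti-human Fc; analyte was MMH-tagged IL2Rγ.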
# [13] = molecular target: T5, Macaca fascicularis IL2Rγ extracellular …; test: SPR Biacore 4000, mAb captured by anti-hFc, 37C, dissociation in PBS-T pH 6.0
# Outline: as §4
50 nM Ag Bound [1] [RU],Kd [1] [nM],koff [1] [s⁻¹],kon [1] [M⁻¹ s⁻¹],t1/2 [1] [min],100 nM Ag Bound [2] [RU],binding result [2],100 nM Ag Bound [3] [RU],binding result [3],100 nM Ag Bound [4] [RU],Kd [4] [nM],koff [4] [s⁻¹],kon [4] [M⁻¹ s⁻¹],t1/2 [4] [min],50 nM Ag Bound [5] [RU],kon [5] [M⁻¹ s⁻¹],100 nM Ag Bound [6] [RU],100 nM Ag Bound [7] [RU],Kd [8] [nM],t1/2 [8] [min],further results,Binder
69,0.0447,1.55e-05,347000,746,1,no binding (tested: 100 nM),1,no binding (tested: 100 nM),29,4.63,0.00171,369000,7,39,238000,0,2,≤ 0.042,≥ 1160,koff [9]: ≤ 1e-05 s⁻¹,B1
115,0.0853,3.41e-05,399000,339,2,no binding (tested: 100 nM),1,no binding (tested: 100 nM),63,5.51,0.00147,266000,8,93,537000,0,0,≤ 0.0186,≥ 1160,koff [9]: ≤ 1e-05 s⁻¹,B2
15,4.18,8.35e-05,20000,138,1,no binding (tested: 100 nM),1,no binding (tested: 100 nM),43,12.4,0.00116,93300,10,14,33000,0,3,≤ 0.303,≥ 1160,koff [9]: ≤ 1e-05 s⁻¹,B3
–,–,–,–,–,–,–,–,–,–,–,–,–,–,–,–,–,–,–,–,100 nM Ag Bound [10]: 12 RU; Kd [10]: 238 nM; koff [10]: 0.00686 s⁻¹; kon [10]: 28800 M⁻¹ s⁻¹; t1/2 [10]: 1.7 min; Kd [11]: 96.5 nM; koff [11]: 0.00555 s⁻¹; kon [11]: 57500 M⁻¹ s⁻¹; t1/2 [11]: 2.1 min; 100 nM Ag Bound (RU) [12]: 27 RU; koff [12]: 0.00596 s⁻¹; t1/2 [12]: 1.9 min; 100 nM Ag Bound (RU) [13]: 22 RU; koff [13]: 0.0129 s⁻¹; t1/2 [13]: 0.9 min,B4
–,–,–,–,–,–,–,–,–,–,–,–,–,–,–,–,–,–,–,–,100 nM Ag Bound [10]: 11 RU; Kd [10]: 107 nM; koff [10]: 0.0261 s⁻¹; kon [10]: 244000 M⁻¹ s⁻¹; t1/2 [10]: 0.4 min; Kd [11]: 132 nM; koff [11]: 0.0264 s⁻¹; kon [11]: 200000 M⁻¹ s⁻¹; t1/2 [11]: 0.4 min; 100 nM Ag Bound (RU) [12]: 25 RU; koff [12]: 0.0279 s⁻¹; t1/2 [12]: 0.4 min; 100 nM Ag Bound (RU) [13]: 20 RU; koff [13]: 0.0303 s⁻¹; t1/2 [13]: 0.4 min,B5
